Measurements from paper PMC3349339 (Journal of Molecular Biology, 2012).

Key:
[1] = target: β81mut (HLA-DR1 with His→Asn substitution at position β81) (Homo sapiens, UniProt P01903+P01911, A100R/D57E/F55L/F60I/F76Y/H110N/I96L/L162R/M171V/P40L/Q125E/R42F/V115G/Y59C); experiment: Fluorescence polarization dissociation measurements, β81mut; type: binding; conditions: FP peptide release, 37 °C, pH 5
[2] = test system: wtDR1; experiment: Fluorescence polarization dissociation measurements, wtDR1; type: binding, human; conditions: FP peptide release, 37 °C, pH 5
[3] = target: HLA-DR1 with a His→Asn substitution at position β81 (human)
[4] = target: HLA-DR1 with a His→Asn substitution at position β81 (human); experiment: fluorescence polarisation

Substance | Stable binding allowing off-rate measurements, β81mut [1] | Stable binding allowing off-rate measurements, wtDR1 [2] | Kd [3] [nM] | t1/2 [4] [h]
P2,3 SD: HA306-319-derived peptide substituted at P2 and P3 (GPKYSDQNTLKLAT) | this was not possible | could bind in a stable fashion |  | 
HA_(306-319) peptide |  |  | 50.6 | 
P3,10 DG: HA306-319-derived peptide substituted at P3 and P10 (GPKYVDQNTLKLGT) | this was not possible | could bind in a stable fashion |  | 
fluorescein-labelled HA_(306-319) peptide |  |  |  | 77.3
